In patent US20110039770A1 (PHARMAGAP, published 2011):
Where no end group is shown, it is not given here.

T1: PKC-ε, purified isoform (UniProt Q02156 1-737)
T1 sequence (looked up): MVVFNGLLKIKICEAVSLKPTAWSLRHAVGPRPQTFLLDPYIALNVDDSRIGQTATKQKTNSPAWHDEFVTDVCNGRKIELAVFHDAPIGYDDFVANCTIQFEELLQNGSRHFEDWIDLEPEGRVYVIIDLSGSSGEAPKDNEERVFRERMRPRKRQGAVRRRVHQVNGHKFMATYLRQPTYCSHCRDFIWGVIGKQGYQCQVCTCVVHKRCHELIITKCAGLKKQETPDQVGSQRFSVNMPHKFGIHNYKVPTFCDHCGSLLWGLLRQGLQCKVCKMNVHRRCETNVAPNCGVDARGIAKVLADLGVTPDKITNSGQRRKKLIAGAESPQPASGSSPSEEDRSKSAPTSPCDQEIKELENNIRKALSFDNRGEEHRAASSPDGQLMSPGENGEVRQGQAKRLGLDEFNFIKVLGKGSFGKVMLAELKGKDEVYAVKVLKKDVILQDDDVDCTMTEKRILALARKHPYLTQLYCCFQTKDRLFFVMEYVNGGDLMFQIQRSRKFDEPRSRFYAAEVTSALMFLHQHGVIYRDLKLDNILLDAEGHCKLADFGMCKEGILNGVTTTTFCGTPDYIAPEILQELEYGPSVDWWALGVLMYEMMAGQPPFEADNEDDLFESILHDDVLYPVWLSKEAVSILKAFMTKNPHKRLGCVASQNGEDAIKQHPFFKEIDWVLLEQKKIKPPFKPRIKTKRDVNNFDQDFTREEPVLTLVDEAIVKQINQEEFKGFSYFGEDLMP


Tests used:
PKC-α, purified isoform = PKC-α, purified isoform (UniProt P17252 1-672); test: cell-based or functional assay
[1] = target: PKC-βII, purified isoform (UniProt P05771-2 1-673); test: cell-based or functional assay
PKC-ε, purified isoform = target: T1, PKC-ε, purified isoform; test: cell-based or functional assay
PKC-βI, purified isoform [2] = target: T2, PKC-βI, purified isoform (UniProt P05771-1 1-671); test: cell-based or functional assay
PKC-βI, purified isoform [3] = target: T2, PKC-βI, purified isoform; test: purified isoform competition ELISA, summary grade

Sequence of PKC-βII, purified isoform (P05771 other isoform, or with tags, fused parts or gaps limits assumed): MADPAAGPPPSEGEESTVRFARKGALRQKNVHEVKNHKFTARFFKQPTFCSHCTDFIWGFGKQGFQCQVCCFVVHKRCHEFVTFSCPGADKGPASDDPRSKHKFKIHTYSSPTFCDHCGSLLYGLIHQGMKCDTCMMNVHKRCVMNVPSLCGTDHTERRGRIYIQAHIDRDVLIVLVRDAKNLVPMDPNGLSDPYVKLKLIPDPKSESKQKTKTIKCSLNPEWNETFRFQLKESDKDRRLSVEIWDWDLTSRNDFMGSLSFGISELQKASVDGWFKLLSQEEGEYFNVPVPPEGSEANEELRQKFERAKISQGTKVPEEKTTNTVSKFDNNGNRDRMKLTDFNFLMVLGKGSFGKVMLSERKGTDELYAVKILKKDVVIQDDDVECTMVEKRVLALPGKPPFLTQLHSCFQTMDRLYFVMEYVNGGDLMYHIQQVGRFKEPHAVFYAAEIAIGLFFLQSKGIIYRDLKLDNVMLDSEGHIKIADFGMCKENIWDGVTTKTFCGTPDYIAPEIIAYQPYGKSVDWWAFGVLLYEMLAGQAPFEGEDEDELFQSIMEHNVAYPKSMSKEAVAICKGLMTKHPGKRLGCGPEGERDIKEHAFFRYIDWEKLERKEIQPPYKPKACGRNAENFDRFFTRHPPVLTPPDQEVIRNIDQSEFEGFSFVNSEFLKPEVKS
T2 sequence (P05771 whole entry, canonical isoform): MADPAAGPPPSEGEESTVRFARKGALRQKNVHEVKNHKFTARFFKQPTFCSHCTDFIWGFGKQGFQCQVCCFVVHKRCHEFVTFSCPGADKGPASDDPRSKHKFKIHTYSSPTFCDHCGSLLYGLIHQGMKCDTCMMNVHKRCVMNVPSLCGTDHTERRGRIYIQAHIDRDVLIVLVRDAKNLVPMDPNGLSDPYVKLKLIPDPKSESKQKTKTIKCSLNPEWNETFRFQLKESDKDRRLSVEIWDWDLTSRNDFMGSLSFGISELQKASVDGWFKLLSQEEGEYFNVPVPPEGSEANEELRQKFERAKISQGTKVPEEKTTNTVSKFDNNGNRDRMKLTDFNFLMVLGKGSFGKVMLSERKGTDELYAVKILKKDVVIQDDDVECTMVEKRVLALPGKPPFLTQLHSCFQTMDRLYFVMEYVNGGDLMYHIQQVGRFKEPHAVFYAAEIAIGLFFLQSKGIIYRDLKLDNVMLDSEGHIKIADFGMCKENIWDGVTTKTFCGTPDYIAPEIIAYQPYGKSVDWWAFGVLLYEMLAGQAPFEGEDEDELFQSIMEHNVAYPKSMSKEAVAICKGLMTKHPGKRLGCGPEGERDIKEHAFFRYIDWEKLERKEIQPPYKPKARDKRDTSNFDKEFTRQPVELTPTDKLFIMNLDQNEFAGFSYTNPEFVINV

Binder | % Inhibition of PKC activity at 150 µM (PKC-α, purified isoform) [%] | % Inhibition of PKC activity at 300 µM (PKC-α, purified isoform) [%] | % Inhibition of PKC activity at 600 µM (PKC-α, purified isoform) [%] | % Inhibition of PKC activity at 150 µM [1] [%] | % Inhibition of PKC activity at 300 µM [1] [%] | % Inhibition of PKC activity at 600 µM [1] [%] | % Inhibition of PKC activity at 150 µM (PKC-ε, purified isoform) [%] | % Inhibition of PKC activity at 300 µM (PKC-ε, purified isoform) [%] | % Inhibition of PKC activity at 600 µM (PKC-ε, purified isoform) [%] | % Inhibition of PKC activity at 150 µM (PKC-βI, purified isoform [2]) [%] | % Inhibition of PKC activity at 300 µM (PKC-βI, purified isoform [2]) [%] | % Inhibition of PKC activity at 600 µM (PKC-βI, purified isoform [2]) [%] | binding result (PKC-βI, purified isoform [3])
FRRK(adenine PNA)FRL [compound PKI 3] | 47 | 51 | 82 | 31 | 83 | 81 | 38 | 53 | 68 | 37 | 76 | 80 | –
ILEDKGGDAQNLIGISI (also called peptide recognition element 8) [PRE 8] | – | – | – | – | – | – | – | – | – | – | – | – | no binding
FRRCFRL [compound PKI 4] | 80 | 80 | 80 | 83 | 83 | 82 | 55 | 55 | 77 | 72 | 72 | 82 | –
